This passage reports koff results from PMC12638815 (2025).

Usually koff stands for the rate constant with which the complex falls apart. Read a high koff as a short-lived complex.

To fix the notation:
B1: VHH B10 (VHH)
VHH: QVQLVESGGGLVQAGDSLRLSCAASGRTFSSYAMGWFRQALGKEREFVAVISGSGTSTYYTDSVKGRFTISRDNAKNTVYLQMNSLKPEDTAVYYCARAKGFSTIYNQDEGRYDYWGQGTQVTVSS
B2: VHH B09 (VHH)
VHH: QVQLVESGGGLVQAGGSLRLSCATSRSTFSSNTIGWYRQAPGKQRELVASISTSGNTYYADSVKGRFAISRDNAENTVYLQMNSLKPEDTAVYYCNTPSRRISNFWGQGTQVTVSS
B3: VHH B07 (VHH)
VHH: EVQLQASGGGLVQAGGSLRLSCAASRSTFSTNTIGWYRQAPGKQRELVASISTSGNTYYPDSVKGRFAISRDNAENTVYLQMNSLKPEDTAVYYCNTPSRRISNFWGQGTQVTVSS

In this experiment the target is hACE2 peptidase domain fused to a human Fc from IgG (human). In words: BLI.
Sequence of hACE2 peptidase domain fused to a human Fc from IgG (human) (Q9BYF1 19-615): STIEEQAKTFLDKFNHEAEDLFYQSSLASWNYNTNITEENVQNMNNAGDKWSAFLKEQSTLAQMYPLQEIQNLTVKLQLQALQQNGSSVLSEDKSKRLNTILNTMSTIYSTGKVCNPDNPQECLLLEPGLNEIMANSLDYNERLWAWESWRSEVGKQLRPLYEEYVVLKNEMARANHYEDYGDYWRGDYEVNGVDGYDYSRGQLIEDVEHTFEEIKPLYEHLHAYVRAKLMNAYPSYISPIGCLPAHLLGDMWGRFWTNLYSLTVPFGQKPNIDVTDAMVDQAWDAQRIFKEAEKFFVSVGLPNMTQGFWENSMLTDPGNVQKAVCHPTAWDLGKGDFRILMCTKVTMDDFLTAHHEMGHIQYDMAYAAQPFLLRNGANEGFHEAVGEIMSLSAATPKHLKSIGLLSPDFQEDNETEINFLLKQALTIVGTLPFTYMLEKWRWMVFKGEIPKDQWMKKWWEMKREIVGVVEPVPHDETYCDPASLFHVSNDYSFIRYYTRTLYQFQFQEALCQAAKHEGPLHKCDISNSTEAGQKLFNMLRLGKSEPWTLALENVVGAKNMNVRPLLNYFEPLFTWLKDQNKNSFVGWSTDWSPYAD
For B1, the koff came to 0.000411 s⁻¹.

Molecule B2 gave a koff of 0.000106 s⁻¹. With B3 the figure was 0.0001 s⁻¹.
